Laboratory results from patent US20250277044A1 (published 2025).
Each block holds one binder with its values, some of them ahead of it.

What was measured:
[1] = molecular target: T1, recombinant human 4-1BB (Sino Biological Inc., catalog number 10041-H08H) (human, UniProt Q07011 24-186); experiment: competition ELISA; blocking of 4-1BB/4-1BBL
[2] = molecular target: T1, recombinant human 4-1BB (Sino …); experiment: ELISA; FIG. 6
[3] = molecular target: T1, recombinant human 4-1BB (Sino …); experiment: ELISA; FIG. 6; remark: listed apart in the source
[4] = molecular target: T1, recombinant human 4-1BB (Sino …); experiment: ELISA; FIG. 2

EC50 [1]: 14 nM | EC50 [2]: 0.086 nM
B1: humanized anti-human 4-1BB monoclonal antibody BH3145b (antibody, V domains shown)
VH: QVQLVQSGAEVKKPGSSVKVSCKASGYTFTSYWINWVRQAPGQGLEWMGNIYPSDSYTNYNQKFKDRVTITADKSTSTAYMELSSLRSEDTAVYYCARLYYGSSPFDYWGQGTTVTVSS
VL: DIQMTQSPSSLSASVGDRVTITCRASQDISNYLNWYQQKPGKVPKLLIYHTSRLHSGVPSRFSGSGSGTDFTLTISSLQPEDVATYYCQQGHTLPRTFGGGTKVEIKR

EC50 [3]: 0.087 nM | EC50 [4]: 0.087 nM
B2: Urelumab (a patent sequence from WO2004010947) (antibody, V domains shown)
VH: QVQLQQWGAGLLKPSETLSLTCAVYGGSFSGYYWSWIRQSPEKGLEWIGEINHGGYVTYNPSLESRVTISVDTSKNQFSLKLSSVTAADTAVYYCARDYGPGNYDWYFDLWGRGTLVTVSS
VL: EIVLTQSPATLSLSPGERATLSCRASQSVSSYLAWYQQKPGQAPRLLIYDASNRATGIPARFSGSGSGTDFTLTISSLEPEDFAVYYCQQRSNWPPALTFGGGTKVEIK
